According to US20050255113A1, “Methods and compositions for inhibiting polypeptide accumulation associated with neurological disorders” (New York State Department of Health and Abgenix, Inc., priority 1999, published 2005):

Legend:
[1] = tested on: HD-polyQ72-GFP or HD-Q104-GFP in BHK cells; assay: Double label immunofluorescence of BHK cells co-transfected with C4 sFv and HD-polyQ-GFP; format: cell-based; conditions: 5:1 C4:HD-polyQ-GFP
Protocol: Some aggregates are found in 104Q co-transfections (never in 25Q), often in cells not expressing C4 (arrowheads), but in some dually-transfected cells as well (arrow). […] Cell lysates were collected from 5:1 co-transfections (sFv:HD-72Q-GFP) in duplicate at 24 hours (prior to prominent aggregate formation and loss of HD-72Q-GFP to the insoluble compartment) and subjected to SDS-PAGE. The membrane was probed with 1:1000 […] primary antibody (Quantum), stripped and reprobed with 1:500 anti-actin antibody (Sigma). HD-72Q-GFP bands were of similar intensity after detection by HRP-conjugated secondary antibody and chemiluminescence.
The typical intrabody constructs were fused to a C-terminal hemagglutinin (HA) peptide tag to facilitate immunodetection of the protein, while keeping the protein localized to the cytosol. […] The diffuse labeling was also characteristic of the normal length (25Q) construct, with or without intrabody co-transfection (FIG. 15).

[2] = tested on: model huntingtin polypeptide (HD-25Q-GFP, pHD-104Q-GFP, HD-Q104-myc, GFP-HD-Q104); assay: Intrabody retargeting of model huntingtin polypeptide in co-transfected COS-7 cells (immunofluorescence); format: cell-based; conditions: co-transfected mammalian cells
Protocol: COS 7 cells were grown on cover glass in 6-well plates (10^5 cells/well) and co-transfected at a ratio of 3:1 (sFv to target) with plasmids containing either N-HD-C4 sFv or a negative control sFv (containing an HA tag and SV40 nuclear localization sequence (NLS)) and plasmids containing GFP-targeted fusion proteins using 5 μl SuperFect transfection reagent (QIAGEN). At 24 hours post-transfection, cells were prepared for immunofluorescence as follows: cells were fixed with 4% paraformaldehyde and permeabilized with 0.2% triton-X100. To prevent non-specific binding of secondary antibodies, cells were blocked with 10% normal goat serum in 3% BSA.
The assay is designed such that both the target antigen, i.e., the model huntingtin polypeptide, and the intrabody can be visualized. In particular, the huntingtin polypeptide is visualized by detecting fluorescence emitted by the GFP domain of the huntingtin-GFP fusion polypeptide and the intrabodies tested are visualized using a rhodamine-conjugated antibody that can specifically bind to the intrabody.
The model HD target polypeptide was fused to c-myc (EQKLISEEDL (SEQ ID NO: 45)) epitope tag (HD-Q104-myc). The intrabodies sequences were fused to a HA tag and a SV40 nuclear localization signal (sFv-HA-NLS), so that bound antigens should be retargeted to the cell nuclei. At 48 hours post-transfection, cells were fixed and permeabilized. The HD-Q104-myc proteins were detectable using anti-myc epitope antibodies (i.e., MAb 9E10 IgG), followed by FITC-labeled goat anti-mouse IgG. The sFv-HA-NLS intrabodies were detected by polyclonal rabbit anti-HA IgG followed by rhodamine-conjugated goat anti-rabbit IgG antibodies.
FIGS. 13A-F show stably transfected COS-7 cells expressing α-Nt-HD-C4 sFv-HA-NLS which were further transfected with plasmids encoding either the model altered huntingtin polypeptide with 104 glutamine repeats (FIGS. 13B, D, F) or the model altered DRPLA polypeptide with 81 glutamine repeats (FIGS. 13A, C, E). Both model altered polypeptides were fused to GFP (GFP-HD-Q104 and GFP-DRPLA-Q81, respectively).

[3] = tested on: GST-HD-25Q, GST-HD-42Q; assay: Affinity purification of sFv with GST-fusion antigens (glutathione-Sepharose, SDS-PAGE, immunoblot); format: binding; conditions: 3 μg sFv with 4 μg antigen, 1 hr room temperature; Coomassie and immunoblot
Protocol: (§1) About 3 ug of N-HD-C4 sFv was mixed with 4 ug of either GST-DRPLA-Q35 or GST-HD-Q25 or GST-HD-Q42 in PBS (200 μl final volume) and rocked for 1 h at RT. Twenty microliters of glutathione Sepharose 4B beads (50% slurry, pre-washed with PBS) was added and incubated for another 30 min at RT to capture the sFv/GST fusion protein complexes. The beads were harvested by centrifugation at 12,000×g for 10 sec and washed thrice with 1 ml PBS. The complexes were eluted with 10 μl of 50 mM Tris pH 8.0 containing 10 mM reduced glutathione for 10 min at RT. Tubes were then centrifuged at 12,000×g for 1 min and the supernatants containing the soluble complexes were transferred to new tubes, mixed with an equal volume of 2× SDS-sample buffer and heated at 95° C. before being loaded on SDS-PAGE.
(§2) About 3 μg of each clone were incubated in solution for 1 hour at room temperature with 4 ug of either GST-DRPLA-Q35, GST-HD-Q25 or GST-HD-Q42. Then, a 10 μl bed volume of glutathione-Sepharose 4B (Pharmacia) was added to each tube to precipitate the GST-fusion protein/sFv complexes. After 30 min incubation, tubes were centrifuged and the pellets washed 3 times with 1 ml PBS. The complexes were eluted from glutathione-Sepharose beads by addition of 10 mM reduced glutathione to the pellets.
(§3) After centrifugation, supernatants containing the eluted complexes were transferred to new tubes and mixed with an equal volume of 2× SDS-loading buffer. The samples were boiled and the proteins separated on a 12% SDS-PAGE. Protein bands were visualized by Coomassie blue staining, and/or transferred to nitrocellulose membranes in order to detect the sFv molecules by immunoblot.
(§4) The binding specificities of the selected sFv clones were tested by affinity binding to a full range of antigens, as follows: (a) using sample numbers that correspond to the experimental results in FIGS. 9 and 10, about 3 μg of α-Nt-HD-C4 sFv clone 1 (lanes 2-4) or α-Nt-HD-C4 sFv clone 2 (lanes 5-7) were mixed with 4 μg of the following antigens and incubated in solution for 1 hr at room temperature (lanes 2 and 5) GST-DRPLA-35Q, (lanes 3 and 6) GST-HD-25Q, (4 and 7) GST-HD-42Q; (b) a 10 μl bed volume of glutathione-Sepharose 4B (Pharmacia) was added to each tube to bind all GST-containing protein complexes; the beads were washed with 10 mM glutathione solution, which eluted the GST-antigen or the sFv-antigen complex, and these eluates were analyzed by SDS-PAGE. Protein bands were visualized by Coomassie blue staining (FIG. 9) and were also transferred to nitrocellulose membranes in order to detect the sFv molecules by immunoblot blot (FIG. 10).

[4] = target: T1, GST-DRPLA-35Q (Homo sapiens, UniProt P54259, DUP487-502); assay: as above; format: binding; conditions: 3 μg sFv with 4 μg antigen, 1 hr room temperature
T1 construct: made in house; host or cells: E. coli BL21
Protocol: as §1, §2, §3, §4

Sequence of model huntingtin polypeptide (HD-25Q-GFP, pHD-104Q-GFP, HD-Q104-myc, GFP-HD-Q104) (as listed by the source): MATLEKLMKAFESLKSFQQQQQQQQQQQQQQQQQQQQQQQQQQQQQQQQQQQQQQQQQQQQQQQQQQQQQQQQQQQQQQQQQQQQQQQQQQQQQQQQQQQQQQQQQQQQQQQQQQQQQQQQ
Sequence of GST-HD-25Q, GST-HD-42Q (as listed by the source): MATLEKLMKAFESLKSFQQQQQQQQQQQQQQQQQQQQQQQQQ
T1 sequence (P54259 with tags, fused parts or gaps DUP487-502): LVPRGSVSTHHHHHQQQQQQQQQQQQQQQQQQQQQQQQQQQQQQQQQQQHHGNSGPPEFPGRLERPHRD

B1: C4 sFv: human single-chain Fv intrabody from phage display, specific for the 17 N-terminal residues of huntingtin; SEQ ID NO: 6 (protein)
scFv: QVQLQESGGGLVQPGGSLRLSCAASGFTFSSYSMSWVRQAPGKGLEWVAVISYDGSNKYYADSVKGRFTISRDNSKNTLYLQMNSLRAEDTAVYYCARDRYFDLWGRGTLVTVSSGGGGSGGGGSGGGGSQSALTQPASVSGSPGQSITISCTGTSSDIGAYNYVSWYQQYPGKAPKLLIYDVSNRPSGISNRFSGSKSGDTASLTISGLQAEDEADYYCSSFANSGPLFGGGTKVTVL
With B1 the “GFP label and aggregates in dual transfectants” value [1] was “substantial diffuse GFP label, but with only an occasional fluorescent aggregate”, the “retargeting of altered huntingtin polypeptide with 104 glutamines (pHD-104Q-GFP)” value [2] was “can specifically retarget the cellular distribution of the model altered huntingtin polypeptide” and the “sFv co-purified with antigens containing the Nt-HD sequence” value [3] was “present at about the same intensity as the other proteins”. For the same molecule, the “sFv co-purified with GST-DRPLA-Q35” value [4] was “not detected”.
